Laboratory results as given in patent publication US20200347464A1.

Target: prostate-specific membrane antigen (PSMA) (human) (UniProt Q04609)
Experiment: in vivo near-infrared optical imaging of mouse liver, 72 h after Ad-Track-PSMA or Ad-Track-Luciferase, 48 h after 15 or 30 ug J591-IR800

prostate-specific membrane antigen (PSMA) (human), sequence (Q04609 whole entry): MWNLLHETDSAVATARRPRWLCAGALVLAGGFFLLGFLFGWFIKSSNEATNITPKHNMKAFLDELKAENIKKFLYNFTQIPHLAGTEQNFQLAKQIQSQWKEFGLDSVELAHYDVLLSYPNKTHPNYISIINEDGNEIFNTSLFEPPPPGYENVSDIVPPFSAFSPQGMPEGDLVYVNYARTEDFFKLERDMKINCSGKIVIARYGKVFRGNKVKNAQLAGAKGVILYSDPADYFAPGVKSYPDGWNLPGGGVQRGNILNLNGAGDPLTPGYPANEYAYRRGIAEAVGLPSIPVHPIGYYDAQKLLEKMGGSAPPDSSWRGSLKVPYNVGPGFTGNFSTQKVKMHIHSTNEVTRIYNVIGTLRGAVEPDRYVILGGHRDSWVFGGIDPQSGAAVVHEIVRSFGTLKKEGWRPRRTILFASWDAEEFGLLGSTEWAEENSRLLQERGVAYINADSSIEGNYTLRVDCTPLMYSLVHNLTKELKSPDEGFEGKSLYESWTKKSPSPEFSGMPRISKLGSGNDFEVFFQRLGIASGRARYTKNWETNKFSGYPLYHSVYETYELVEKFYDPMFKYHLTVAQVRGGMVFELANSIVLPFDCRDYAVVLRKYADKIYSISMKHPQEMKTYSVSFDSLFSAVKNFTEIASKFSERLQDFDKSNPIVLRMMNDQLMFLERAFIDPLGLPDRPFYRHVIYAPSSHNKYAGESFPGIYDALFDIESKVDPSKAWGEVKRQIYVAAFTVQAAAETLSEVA

J591 antibody conjugated to IRDye 800CW
signal-to-noise ratio (PSMA adenovirus relative to control adenovirus, liver): 3
